In article PMC8809517, “Cofactor-independent RNA editing by a synthetic S-type PPR protein” one finds Kd data, which are given here for four molecules.

As a reminder, the Kd is the free concentration of one partner at which half of the binding sites on the other are occupied at equilibrium, for simple one-to-one binding.

Holding throughout (assay): high-throughput RNA pulldown from lysate on Ni-NTA beads; HRP: 50 mM Tris pH 8, 150 mM NaCl, 1 mM beta-mercaptoethanol, 50 ug/ml BSA, 3 ug/ml yeast RNA, 0.5% heparin; ITC and FP: Tris pH 8, 200 mM KCl, 5% glycerol; MST: 50 mM Tris pH 8, 200 mM NaCl, 1 mM DTT, BSA, heparin, 0.05% Tween 20
What all share (details): tags: N-terminal His-eGFP

Data set [1] concerns the target T1, GFP-9S library array, motif 4 ND N98S;D124S (synthetic construct, N98S;D124S).
T1 chain: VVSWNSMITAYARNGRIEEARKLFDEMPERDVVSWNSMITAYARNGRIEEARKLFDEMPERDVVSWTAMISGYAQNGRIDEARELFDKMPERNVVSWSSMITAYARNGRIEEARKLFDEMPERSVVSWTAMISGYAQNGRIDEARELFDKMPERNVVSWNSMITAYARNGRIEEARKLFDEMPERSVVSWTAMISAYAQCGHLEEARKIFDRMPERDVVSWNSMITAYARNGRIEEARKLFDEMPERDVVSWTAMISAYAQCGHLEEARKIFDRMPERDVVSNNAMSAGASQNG

Data set [2] concerns the target T2, GFP-9S library array, motif 4 ND N98E;D124S (synthetic construct, N98E;D124S).
T2 chain: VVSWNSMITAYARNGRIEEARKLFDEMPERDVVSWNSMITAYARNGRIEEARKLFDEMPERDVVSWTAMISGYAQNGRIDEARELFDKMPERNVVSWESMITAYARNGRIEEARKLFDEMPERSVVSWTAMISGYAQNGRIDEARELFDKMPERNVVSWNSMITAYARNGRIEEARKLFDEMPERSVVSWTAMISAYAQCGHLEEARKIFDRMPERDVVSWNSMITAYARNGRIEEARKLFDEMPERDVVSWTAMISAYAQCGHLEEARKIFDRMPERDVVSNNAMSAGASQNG

Data set [3] deals with T3, GFP-9S library array, motif 4 ND N98H;D124F (synthetic construct, N98H;D124F).
T3 chain: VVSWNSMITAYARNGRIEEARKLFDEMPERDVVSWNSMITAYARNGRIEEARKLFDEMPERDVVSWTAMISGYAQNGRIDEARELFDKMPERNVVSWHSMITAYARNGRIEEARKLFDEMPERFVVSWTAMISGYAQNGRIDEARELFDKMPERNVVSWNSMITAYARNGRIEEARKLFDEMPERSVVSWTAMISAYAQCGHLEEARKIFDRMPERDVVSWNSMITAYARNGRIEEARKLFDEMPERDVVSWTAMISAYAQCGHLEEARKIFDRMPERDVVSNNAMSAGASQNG

The target of data set [4] is T4, GFP-9S library array, motif 4 ND N98C;D124A (synthetic construct, N98C;D124A).
T4 chain: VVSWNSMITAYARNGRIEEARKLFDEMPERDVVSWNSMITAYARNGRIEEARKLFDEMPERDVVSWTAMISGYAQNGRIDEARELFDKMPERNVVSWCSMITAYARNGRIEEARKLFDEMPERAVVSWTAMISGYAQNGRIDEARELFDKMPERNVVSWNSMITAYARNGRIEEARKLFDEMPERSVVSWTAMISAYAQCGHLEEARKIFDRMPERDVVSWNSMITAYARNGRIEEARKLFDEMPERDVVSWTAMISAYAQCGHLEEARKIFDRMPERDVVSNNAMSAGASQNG

Data set [5] has as its target T5, GFP-9S library array, motif 4 ND N98L;D124H (synthetic construct, N98L;D124H).
T5 chain: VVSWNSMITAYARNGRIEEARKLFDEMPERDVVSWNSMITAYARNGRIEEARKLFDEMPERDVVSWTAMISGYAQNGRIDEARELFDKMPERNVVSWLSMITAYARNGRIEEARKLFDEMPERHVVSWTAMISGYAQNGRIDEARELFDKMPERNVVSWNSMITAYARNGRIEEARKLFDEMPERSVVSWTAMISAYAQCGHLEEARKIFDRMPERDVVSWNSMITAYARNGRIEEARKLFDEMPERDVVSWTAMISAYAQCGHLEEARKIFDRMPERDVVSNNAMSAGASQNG

In the case of AUUAAACGUGA (ssRNA) [IR-rpoA-A], the dissociation constant (Kd) in data set [1] (label: 5' IRDye 800CW) worked out at 65.3 nM; in data set [2] (label: 5' IRDye 800CW) it was 938 nM; in data set [3] (label: 5' IRDye 800CW), 320 nM; in data set [4] (label: 5' IRDye 800CW), 98.2 nM; in data set [5] (label: 5' IRDye 800CW) it was 399 nM.
Take AUUACACGUGA (ssRNA) [Cy5-rpoA]: the Kd stood at 112 nM in data set [1] (label: 5' Cy5); 422 nM in data set [2] (label: 5' Cy5); 140 nM in data set [3] (label: 5' Cy5); 114 nM in data set [4] (label: 5' Cy5); 179 nM in data set [5] (label: 5' Cy5).
Regarding AUUAUACGUGA (ssRNA) [IR-rpoA-U], the Kd in data set [1] (label: 5' IRDye 800CW) was 69.8 nM; in data set [2] (label: 5' IRDye 800CW), 512 nM; in data set [3] (label: 5' IRDye 800CW), 204 nM; in data set [4] (label: 5' IRDye 800CW), 159 nM; in data set [5] (label: 5' IRDye 800CW), 125 nM.
As for AUUAGACGUGA (ssRNA) [Cy5-rpoA-G], the Kd came to 251 nM in data set [1] (label: 5' Cy5); 630 nM in data set [2] (label: 5' Cy5); 134 nM in data set [3] (label: 5' Cy5); 92.3 nM in data set [4] (label: 5' Cy5); 196 nM in data set [5] (label: 5' Cy5).
